T1: canine IL-31 protein (Canine_IL31) (canine)
T1 chain: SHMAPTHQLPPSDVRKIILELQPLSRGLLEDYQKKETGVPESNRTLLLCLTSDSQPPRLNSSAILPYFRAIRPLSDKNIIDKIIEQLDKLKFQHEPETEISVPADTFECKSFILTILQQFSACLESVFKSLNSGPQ

T2: wildtype feline IL-31 protein (Feline_IL31_wildtype) (feline)
T2 construct: Full length feline IL-31 with C-terminal His tag, secreted from ExpiCHO cells; also called fIL-31
T2 chain: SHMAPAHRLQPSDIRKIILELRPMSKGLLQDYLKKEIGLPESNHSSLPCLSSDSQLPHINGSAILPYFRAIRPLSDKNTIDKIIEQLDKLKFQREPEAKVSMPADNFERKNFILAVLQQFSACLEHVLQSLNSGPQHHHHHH


What was measured:
[1] = target: T1, canine IL-31 protein (Canine_IL31); assay: SPR (Biacore), IL-31 on chip, 1:1 fit
[2] = target: T2, wildtype feline IL-31 protein …; assay: SPR (Biacore), IL-31 on chip, 1:1 fit
Procedure: The affinity with which candidate mAbs bind canine and feline IL-31 was determined using surface plasmon resonance (SPR) on a Biacore system (Biocore Life Sciences (GE Healthcare), Uppsala, Sweden). To avoid affinity differences associated with differential surface preparation that can occur when immobilizing antibodies to surfaces; a strategy was employed where IL-31 was directly conjugated to the surface. Immobilization was obtained by amine coupling 5 μg/mL IL-31 using N-hydroxysuccinimide (NHS)/1-Ethyl-3-(3-dimethylaminopropyl) carbodiimide (EDC) chemistry. Chips were quenched with ethanolamine and the affinity with which all candidate mAbs bound to the immobilized IL-31 was evaluated. All curves were fit to a 1:1 model. […] Results for affinity measurements are described herein.

| Binder | koff [1] | kon [1] | Kd [2] | koff [2] | kon [2] | Kd [1] |
| --- | --- | --- | --- | --- | --- | --- |
| Feline 15H05 1.1 FW2 (antibody, V domains shown, also called felinized 15H05 1.1 FW2) VH: QVLLVQSGAEVRTPGASVKIFCKASGYSFTSYTIHWLRQAPAQGLEWMGNINPTSGYTENNQRFKDRLTLTADTSTNTAYMELSSLRSADTAMYYCARWGFKYDGEWSFDVWGAGTTVTVSS VL: EIQMTQSPSSLSASPGDRVTITCRASQGISIWLSWYQQKPGNIPKVLINKASNLHIGVPSRFSGSGSGTDFTLTISSLEPEDAATYYCLQSQTYPLTFGGGTKLEIK | 1.66e-07 s⁻¹ | 384000 M⁻¹ s⁻¹ | 0.065 nM | 2.49e-05 s⁻¹ | 383000 M⁻¹ s⁻¹ | – |
| Feline 15H05 VH2 mouse VL (antibody, V domains shown, also called felinized 15H05 VH2 with mouse 15H05 VL (heterochimera)) VH: QVLLVQSGAEVRTPGASVKIFCKASGYGFTSYTIHWVRQSPAQGLEWMGNINPTSGYTENNQRFKDRLTLTADTSTNTAYMELSSLRSADTAMYYCARWGFKYDGEWSFDVWGAGTTVTVSS VL: DIQMNQSPSSLSASLGDTITVTCRASQGISIWLSWYQQKPGNIPKVLINKASNLHIGVPPRFSGSGSGTHFTLTITSLQPEDIATYYCLQSQTYPLTFGGGTKLEIN | 0.000379 s⁻¹ | 171000 M⁻¹ s⁻¹ | 1.61 nM | 5.47e-05 s⁻¹ | 34000 M⁻¹ s⁻¹ | – |
| Feline 15H05 1.1 K42N_V43I (antibody, V domains shown) VH: QVLLVQSGAEVRTPGASVKIFCKASGYSFTSYTIHWLRQAPAQGLEWMGNINPTSGYTENNQRFKDRLTLTADTSTNTAYMELSSLRSADTAMYYCARWGFKYDGEWSFDVWGAGTTVTVSS VL: EIQMTQSPSSLSASPGDRVTITCRASQGISIWLSWYQQKPGNIPKLLIYKASNLHIGVPSRFSGSGSGTDFTLTISSLEPEDAATYYCLQSQTYPLTFGGGTKLEIK | – | – | 9.42 nM | 0.0022 s⁻¹ | 234000 M⁻¹ s⁻¹ | – |
| Feline 15H05 3.3 (antibody, V domains shown, Feline heavy and kappa constant regions) VH: QVLLVQSGAEVRKPGASVKIFCKASGYSFTSYTIHWLRQAPEQGLEWMGNINPTSGYTENNQRFKDRLTLTADTSTNTAYMELSSLRSADTAMYYCARWGFKYDGEWSFDVWGAGTTVTVSS VL: EVVLTQSSAFLSRTLKEKATITCRASQGISIWLSWYQQKPNQAPKLLVKKASNLHIGAPSRFSGSGSGTDFTLTISSPEPEDAATYYCLQSQTYPLTFGGGTKLGDQ | – | – | 11.6 nM | 0.000886 s⁻¹ | 76300 M⁻¹ s⁻¹ | – |
| Feline 15H05 1.1 (antibody, V domains shown, Feline heavy and kappa constant regions) VH: QVLLVQSGAEVRTPGASVKIFCKASGYSFTSYTIHWLRQAPAQGLEWMGNINPTSGYTENNQRFKDRLTLTADTSTNTAYMELSSLRSADTAMYYCARWGFKYDGEWSFDVWGAGTTVTVSS VL: EIQMTQSPSSLSASPGDRVTITCRASQGISIWLSWYQQKPGKVPKLLIYKASNLHIGVPSRFSGSGSGTDFTLTISSLEPEDAATYYCLQSQTYPLTFGGGTKLEIK | 1.36e-07 s⁻¹ | 27000 M⁻¹ s⁻¹ | 13.5 nM | 0.00131 s⁻¹ | 97100 M⁻¹ s⁻¹ | – |
| Feline 15H05 1.1 FW1_2 (antibody, V domains shown) VH: QVLLVQSGAEVRTPGASVKIFCKASGYSFTSYTIHWLRQAPAQGLEWMGNINPTSGYTENNQRFKDRLTLTADTSTNTAYMELSSLRSADTAMYYCARWGFKYDGEWSFDVWGAGTTVTVSS VL: DIQMNQSPSSLSASLGDTITVTCRASQGISIWLSWYQQKPGNIPKVLINKASNLHIGVPSRFSGSGSGTDFTLTISSLEPEDAATYYCLQSQTYPLTFGGGTKLEIK | 3.82e-06 s⁻¹ | 6910 M⁻¹ s⁻¹ | 0.887 nM | 6.7e-06 s⁻¹ | 7560 M⁻¹ s⁻¹ | – |
| Feline 15H05 1.1 V43I (antibody, V domains shown) VH: QVLLVQSGAEVRTPGASVKIFCKASGYSFTSYTIHWLRQAPAQGLEWMGNINPTSGYTENNQRFKDRLTLTADTSTNTAYMELSSLRSADTAMYYCARWGFKYDGEWSFDVWGAGTTVTVSS VL: EIQMTQSPSSLSASPGDRVTITCRASQGISIWLSWYQQKPGKIPKLLIYKASNLHIGVPSRFSGSGSGTDFTLTISSLEPEDAATYYCLQSQTYPLTFGGGTKLEIK | – | – | 13.6 nM | 0.000401 s⁻¹ | 29400 M⁻¹ s⁻¹ | – |
| Feline 15H05 1.1 K42N (antibody, V domains shown) VH: QVLLVQSGAEVRTPGASVKIFCKASGYSFTSYTIHWLRQAPAQGLEWMGNINPTSGYTENNQRFKDRLTLTADTSTNTAYMELSSLRSADTAMYYCARWGFKYDGEWSFDVWGAGTTVTVSS VL: EIQMTQSPSSLSASPGDRVTITCRASQGISIWLSWYQQKPGNVPKLLIYKASNLHIGVPSRFSGSGSGTDFTLTISSLEPEDAATYYCLQSQTYPLTFGGGTKLEIK | – | – | 6770 nM | 0.011 s⁻¹ | 1630 M⁻¹ s⁻¹ | – |
| Feline 15H05 1.1 FW2_3 (antibody, V domains shown) VH: QVLLVQSGAEVRTPGASVKIFCKASGYSFTSYTIHWLRQAPAQGLEWMGNINPTSGYTENNQRFKDRLTLTADTSTNTAYMELSSLRSADTAMYYCARWGFKYDGEWSFDVWGAGTTVTVSS VL: EIQMTQSPSSLSASPGDRVTITCRASQGISIWLSWYQQKPGNIPKVLINKASNLHIGVPPRFSGSGSGTHFTLTITSLQPEDIATYYCLQSQTYPLTFGGGTKLEIK | 0.00193 s⁻¹ | 9050 M⁻¹ s⁻¹ | 123 nM | 0.00116 s⁻¹ | 9490 M⁻¹ s⁻¹ | – |
| Feline 15H05 VH1 mouse VL (antibody, V domains shown, Heterochimeric antibody; also called felinized 15H05 VH1 with mouse 15H05 VL (heterochimera)) VH: QVLLVQSGAEVRTPGASVKIFCKASGYSFTSYTIHWLRQAPAQGLEWMGNINPTSGYTENNQRFKDRLTLTADTSTNTAYMELSSLRSADTAMYYCARWGFKYDGEWSFDVWGAGTTVTVSS VL: DIQMNQSPSSLSASLGDTITVTCRASQGISIWLSWYQQKPGNIPKVLINKASNLHIGVPPRFSGSGSGTHFTLTITSLQPEDIATYYCLQSQTYPLTFGGGTKLEIN | 2.66e-07 s⁻¹ | 108000 M⁻¹ s⁻¹ | 0.168 nM | 2.2e-05 s⁻¹ | 131000 M⁻¹ s⁻¹ | – |
| Feline 15H05 2.1 (antibody, V domains shown, Feline heavy and kappa constant regions) VH: QVLLVQSGAEVRTPGASVKIFCKASGYGFTSYTIHWVRQSPAQGLEWMGNINPTSGYTENNQRFKDRLTLTADTSTNTAYMELSSLRSADTAMYYCARWGFKYDGEWSFDVWGAGTTVTVSS VL: EIQMTQSPSSLSASPGDRVTITCRASQGISIWLSWYQQKPGKVPKLLIYKASNLHIGVPSRFSGSGSGTDFTLTISSLEPEDAATYYCLQSQTYPLTFGGGTKLEIK | 0.000866 s⁻¹ | 525000 M⁻¹ s⁻¹ | 22.3 nM | 0.00465 s⁻¹ | 208000 M⁻¹ s⁻¹ | – |
| Feline 15H05 1.1 FW1 (antibody, V domains shown) VH: QVLLVQSGAEVRTPGASVKIFCKASGYSFTSYTIHWLRQAPAQGLEWMGNINPTSGYTENNQRFKDRLTLTADTSTNTAYMELSSLRSADTAMYYCARWGFKYDGEWSFDVWGAGTTVTVSS VL: DIQMNQSPSSLSASLGDTITVTCRASQGISIWLSWYQQKPGKVPKLLIYKASNLHIGVPSRFSGSGSGTDFTLTISSLEPEDAATYYCLQSQTYPLTFGGGTKLEIK | 0.0156 s⁻¹ | 19200 M⁻¹ s⁻¹ | 564 nM | 0.00286 s⁻¹ | 5060 M⁻¹ s⁻¹ | – |
| Feline 15H05 1.1 FW3 (antibody, V domains shown) VH: QVLLVQSGAEVRTPGASVKIFCKASGYSFTSYTIHWLRQAPAQGLEWMGNINPTSGYTENNQRFKDRLTLTADTSTNTAYMELSSLRSADTAMYYCARWGFKYDGEWSFDVWGAGTTVTVSS VL: EIQMTQSPSSLSASPGDRVTITCRASQGISIWLSWYQQKPGKVPKLLIYKASNLHIGVPPRFSGSGSGTHFTLTITSLQPEDIATYYCLQSQTYPLTFGGGTKLEIK | 3.91e-07 s⁻¹ | 3000 M⁻¹ s⁻¹ | 0.0564 nM | 1.21e-05 s⁻¹ | 214000 M⁻¹ s⁻¹ | 0.13 nM |
| Feline 15H05 3.1 (antibody, V domains shown, Feline heavy and kappa constant regions) VH: QVLLVQSGAEVRKPGASVKIFCKASGYSFTSYTIHWLRQAPEQGLEWMGNINPTSGYTENNQRFKDRLTLTADTSTNTAYMELSSLRSADTAMYYCARWGFKYDGEWSFDVWGAGTTVTVSS VL: EIQMTQSPSSLSASPGDRVTITCRASQGISIWLSWYQQKPGKVPKLLIYKASNLHIGVPSRFSGSGSGTDFTLTISSLEPEDAATYYCLQSQTYPLTFGGGTKLEIK | 2.11e-05 s⁻¹ | 26500 M⁻¹ s⁻¹ | 37.1 nM | 0.00166 s⁻¹ | 44700 M⁻¹ s⁻¹ | – |
| Feline 15H05 1.1 Y49N (antibody, V domains shown) VH: QVLLVQSGAEVRTPGASVKIFCKASGYSFTSYTIHWLRQAPAQGLEWMGNINPTSGYTENNQRFKDRLTLTADTSTNTAYMELSSLRSADTAMYYCARWGFKYDGEWSFDVWGAGTTVTVSS VL: EIQMTQSPSSLSASPGDRVTITCRASQGISIWLSWYQQKPGKVPKLLINKASNLHIGVPSRFSGSGSGTDFTLTISSLEPEDAATYYCLQSQTYPLTFGGGTKLEIK | – | – | 39.5 nM | 0.00095 s⁻¹ | 24000 M⁻¹ s⁻¹ | – |
| Feline 15H05 2.3 (antibody, V domains shown, Feline heavy and kappa constant regions) VH: QVLLVQSGAEVRTPGASVKIFCKASGYGFTSYTIHWVRQSPAQGLEWMGNINPTSGYTENNQRFKDRLTLTADTSTNTAYMELSSLRSADTAMYYCARWGFKYDGEWSFDVWGAGTTVTVSS VL: EVVLTQSSAFLSRTLKEKATITCRASQGISIWLSWYQQKPNQAPKLLVKKASNLHIGAPSRFSGSGSGTDFTLTISSPEPEDAATYYCLQSQTYPLTFGGGTKLGDQ | – | – | 1.57 nM | 0.000535 s⁻¹ | 341000 M⁻¹ s⁻¹ | – |
| Feline 15H05 1.1 L46V (antibody, V domains shown) VH: QVLLVQSGAEVRTPGASVKIFCKASGYSFTSYTIHWLRQAPAQGLEWMGNINPTSGYTENNQRFKDRLTLTADTSTNTAYMELSSLRSADTAMYYCARWGFKYDGEWSFDVWGAGTTVTVSS VL: EIQMTQSPSSLSASPGDRVTITCRASQGISIWLSWYQQKPGKVPKVLIYKASNLHIGVPSRFSGSGSGTDFTLTISSLEPEDAATYYCLQSQTYPLTFGGGTKLEIK | – | – | 22.8 nM | 0.000811 s⁻¹ | 35500 M⁻¹ s⁻¹ | – |

Reference: patent US20250136677A1 (ZOETIS SERVICES, published 2025)
